Test results taken from PMC5177502.

Target: Human recombinant FGF 1 (fibroblast growth factor 1) (human) (UniProt P05230)
Test: native MS

stoichiometry N: 2
Substance: Human recombinant FGF 1 (fibroblast growth factor 1) (from UniProt P05230 16-155) (natural protein)
